Results: publication PMC4988437 (Channels, 2016)

Key:
Assay in all cases: FRET or BRET
CFP-Rem(224-297) = target: T1, CFP-Rem(224-297) (mouse, UniProt O35929 224-297)
T1 sequence (looked up): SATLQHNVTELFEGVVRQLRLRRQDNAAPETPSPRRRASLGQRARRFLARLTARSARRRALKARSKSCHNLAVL

CFP-Rem(1-285) = target: T2, CFP-Rem(1-285) (mouse, UniProt O35929 1-285)
T2 sequence (looked up): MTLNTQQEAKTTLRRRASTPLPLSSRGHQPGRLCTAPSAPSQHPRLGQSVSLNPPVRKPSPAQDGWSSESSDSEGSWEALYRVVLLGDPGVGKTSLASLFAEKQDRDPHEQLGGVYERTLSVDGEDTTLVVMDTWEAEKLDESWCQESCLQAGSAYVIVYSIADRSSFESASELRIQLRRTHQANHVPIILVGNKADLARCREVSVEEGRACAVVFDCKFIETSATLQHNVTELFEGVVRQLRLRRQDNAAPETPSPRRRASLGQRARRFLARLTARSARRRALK

CFP-Rem(1-275) = target: T3, CFP-Rem(1-275) (mouse, UniProt O35929 1-275)
T3 sequence (looked up): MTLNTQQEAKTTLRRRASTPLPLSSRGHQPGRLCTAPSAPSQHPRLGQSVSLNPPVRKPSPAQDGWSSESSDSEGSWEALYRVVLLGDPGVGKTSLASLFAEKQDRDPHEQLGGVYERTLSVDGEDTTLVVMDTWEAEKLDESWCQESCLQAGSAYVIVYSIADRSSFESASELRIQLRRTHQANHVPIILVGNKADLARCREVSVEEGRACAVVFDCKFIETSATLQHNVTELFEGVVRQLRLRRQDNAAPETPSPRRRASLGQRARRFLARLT

B1: YFP-tagged alpha1C N-terminus (domain or fragment)
chain: not shown
CFP-Rem(224-297)
  FRET efficiency: 0.439
CFP-Rem(1-285)
  FRET efficiency: 0.071
CFP-Rem(1-275)
  FRET efficiency: 0.04
